One protein from publication PMC3520743, “Bacillus cereus Fnr binds a [4Fe-4S] cluster and forms a ternary complex with ResD and PlcR” (BMC Microbiology, 2012) can be followed below.

This data set deals with the molecule itself. As to the kind of experiment: SEC + other: SDS-PAGE under non-reducing conditions; analytical gel filtration chromatography and SDS-PAGE without DTT or beta-mercaptoethanol; apparent molecular mass ca. 60,000; dimer.

B1: Bacillus cereus Fnr, recombinant tag-less apo-form (natural protein, Bacillus cereus F4430/73, UniProt A4GFD9 1-230, looked up)
chain: MANSMTLSQDLKELLASVEYKMQIKKGSFIFQEGMEATELYIIHSGKVQISKLSADGQELTLRICSAYDIIGELTLFTDNAKYLLNSKCLEDVEVGVIKREALEKELLQKPALVFEFMKWISEHLRRMQTKFRDLVLHGKKGALYSTLIRMTNSYGILKENGILIDLPLTNQELANFCATSRESVNRMLNELKKQGTISIHKGKITIHDLQFLKCEIACEDCSASVCSID
notes: also called apoFnr; tag-less Fnr; source: E. coli BL21 CodonPlus(DE3)-RIL (pET101fnr), aerobically grown, purified (DEAE-cellulose, hydroxyapatite, Superdex 200)
For the protein B1, the “stoichiometry N” value was determined as 2.
